Tests used:
Grb2 SH2 = Grb2 SH2 (UniProt P62993); assay: SH2 binding enrichment of the phosphorylated peptide, bacterial display (enrichment ratio); higher = better substrate or ligand; peptides without Tyr show the background
c-Src SH2 = assay: as above
SHP2-C SH2 = assay: as above
FGFR1 = FGFR1 (UniProt P11362); assay: phosphorylation enrichment, bacterial display (enrichment ratio); higher = better substrate or ligand; peptides without Tyr show the background
c-Src = assay: as above
EPHB2 = EPHB2 (UniProt P29323); assay: as above
Fes = Fes (UniProt P07332); assay: as above
Hck = Hck (UniProt P08631); assay: as above
Chain of Hck (P08631 whole entry, looked up): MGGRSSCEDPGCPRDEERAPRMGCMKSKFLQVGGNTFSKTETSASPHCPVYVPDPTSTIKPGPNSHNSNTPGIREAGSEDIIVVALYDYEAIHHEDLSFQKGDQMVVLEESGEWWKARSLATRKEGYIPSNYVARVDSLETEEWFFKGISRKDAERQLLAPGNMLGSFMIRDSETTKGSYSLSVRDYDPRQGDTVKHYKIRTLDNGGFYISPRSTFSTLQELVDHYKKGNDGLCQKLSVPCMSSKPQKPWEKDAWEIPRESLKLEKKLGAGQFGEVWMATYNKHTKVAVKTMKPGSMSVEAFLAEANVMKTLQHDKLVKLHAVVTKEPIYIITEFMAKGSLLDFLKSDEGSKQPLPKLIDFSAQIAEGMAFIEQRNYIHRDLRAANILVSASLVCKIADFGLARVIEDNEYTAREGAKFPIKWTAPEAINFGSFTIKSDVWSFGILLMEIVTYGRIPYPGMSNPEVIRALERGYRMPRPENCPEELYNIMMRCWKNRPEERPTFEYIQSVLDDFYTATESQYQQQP

Jak2 = Jak2 (UniProt O60674); assay: as above
Chain of Jak2 (O60674 whole entry, looked up): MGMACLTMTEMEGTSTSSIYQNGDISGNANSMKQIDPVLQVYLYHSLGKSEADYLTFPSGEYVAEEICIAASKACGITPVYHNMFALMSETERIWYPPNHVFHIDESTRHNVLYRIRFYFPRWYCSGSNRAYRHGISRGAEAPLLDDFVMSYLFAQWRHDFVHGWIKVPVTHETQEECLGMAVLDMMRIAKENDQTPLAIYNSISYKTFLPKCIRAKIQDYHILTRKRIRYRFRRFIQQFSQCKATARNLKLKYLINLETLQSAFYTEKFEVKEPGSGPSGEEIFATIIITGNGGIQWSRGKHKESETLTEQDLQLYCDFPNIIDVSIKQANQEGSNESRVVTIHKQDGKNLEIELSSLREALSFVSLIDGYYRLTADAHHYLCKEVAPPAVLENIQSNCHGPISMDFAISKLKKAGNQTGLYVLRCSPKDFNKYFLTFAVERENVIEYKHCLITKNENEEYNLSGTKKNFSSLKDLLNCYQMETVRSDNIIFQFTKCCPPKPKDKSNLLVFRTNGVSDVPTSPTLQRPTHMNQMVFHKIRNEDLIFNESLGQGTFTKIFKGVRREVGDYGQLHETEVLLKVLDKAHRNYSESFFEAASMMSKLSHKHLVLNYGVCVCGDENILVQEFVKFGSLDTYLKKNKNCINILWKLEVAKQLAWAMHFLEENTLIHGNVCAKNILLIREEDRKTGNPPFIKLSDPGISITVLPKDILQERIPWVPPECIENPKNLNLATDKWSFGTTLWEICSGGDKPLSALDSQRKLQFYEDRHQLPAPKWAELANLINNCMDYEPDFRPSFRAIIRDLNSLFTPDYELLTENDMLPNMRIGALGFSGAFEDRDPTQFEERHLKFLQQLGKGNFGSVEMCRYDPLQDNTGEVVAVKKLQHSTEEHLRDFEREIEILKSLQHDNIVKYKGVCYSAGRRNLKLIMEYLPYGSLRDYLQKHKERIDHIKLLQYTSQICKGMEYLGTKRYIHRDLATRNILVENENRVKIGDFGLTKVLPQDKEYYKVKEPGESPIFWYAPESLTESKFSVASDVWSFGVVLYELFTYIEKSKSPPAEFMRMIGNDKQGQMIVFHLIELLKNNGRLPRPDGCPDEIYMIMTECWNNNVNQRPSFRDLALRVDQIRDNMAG

Fer (mouse) = assay: as above
MERTK = MERTK (UniProt Q12866); assay: as above
c-Abl (mouse) = assay: as above
AncSZ = assay: as above
Fyn = Fyn (UniProt P06241); assay: as above
Chain of Fyn (P06241 whole entry, looked up): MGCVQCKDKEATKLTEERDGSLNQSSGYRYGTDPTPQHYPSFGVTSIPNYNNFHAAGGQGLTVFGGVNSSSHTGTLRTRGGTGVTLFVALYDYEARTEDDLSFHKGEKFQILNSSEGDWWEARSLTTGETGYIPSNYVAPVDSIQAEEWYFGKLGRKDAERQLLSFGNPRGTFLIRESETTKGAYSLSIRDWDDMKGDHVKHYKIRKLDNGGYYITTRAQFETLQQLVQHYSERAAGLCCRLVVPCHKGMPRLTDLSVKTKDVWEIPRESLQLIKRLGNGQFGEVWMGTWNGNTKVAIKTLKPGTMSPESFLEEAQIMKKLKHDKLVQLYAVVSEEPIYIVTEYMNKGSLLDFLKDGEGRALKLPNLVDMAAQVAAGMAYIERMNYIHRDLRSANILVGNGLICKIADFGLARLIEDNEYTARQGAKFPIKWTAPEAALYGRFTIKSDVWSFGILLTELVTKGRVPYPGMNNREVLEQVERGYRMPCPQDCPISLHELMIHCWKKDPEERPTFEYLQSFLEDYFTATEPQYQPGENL

FGFR3 = FGFR3 (UniProt P22607); assay: as above
Chain of FGFR3 (P22607 whole entry, looked up): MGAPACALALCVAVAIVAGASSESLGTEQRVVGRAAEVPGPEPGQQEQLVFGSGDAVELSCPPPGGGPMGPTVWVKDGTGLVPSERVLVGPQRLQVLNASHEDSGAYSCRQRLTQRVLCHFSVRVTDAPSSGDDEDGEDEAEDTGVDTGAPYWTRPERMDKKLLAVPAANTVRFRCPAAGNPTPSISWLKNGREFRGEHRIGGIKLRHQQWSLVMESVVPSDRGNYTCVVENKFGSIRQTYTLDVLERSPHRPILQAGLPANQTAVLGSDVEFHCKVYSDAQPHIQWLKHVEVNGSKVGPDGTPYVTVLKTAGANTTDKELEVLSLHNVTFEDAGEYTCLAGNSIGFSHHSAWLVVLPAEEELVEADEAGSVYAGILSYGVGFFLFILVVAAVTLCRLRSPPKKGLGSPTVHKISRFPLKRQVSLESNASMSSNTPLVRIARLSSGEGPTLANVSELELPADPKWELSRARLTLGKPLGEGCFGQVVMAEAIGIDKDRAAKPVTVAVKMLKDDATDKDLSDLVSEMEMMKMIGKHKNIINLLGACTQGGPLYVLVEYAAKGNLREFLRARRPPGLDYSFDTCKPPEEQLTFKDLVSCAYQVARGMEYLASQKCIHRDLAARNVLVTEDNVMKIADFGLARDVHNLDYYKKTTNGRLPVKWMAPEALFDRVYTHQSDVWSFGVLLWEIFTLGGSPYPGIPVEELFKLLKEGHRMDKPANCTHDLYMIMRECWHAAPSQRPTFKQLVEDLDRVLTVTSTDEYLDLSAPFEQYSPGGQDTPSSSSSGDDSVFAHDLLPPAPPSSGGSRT

EPHB1 = EPHB1 (UniProt P54762); assay: as above
Chain of EPHB1 (P54762 whole entry, looked up, the tested form may be a part): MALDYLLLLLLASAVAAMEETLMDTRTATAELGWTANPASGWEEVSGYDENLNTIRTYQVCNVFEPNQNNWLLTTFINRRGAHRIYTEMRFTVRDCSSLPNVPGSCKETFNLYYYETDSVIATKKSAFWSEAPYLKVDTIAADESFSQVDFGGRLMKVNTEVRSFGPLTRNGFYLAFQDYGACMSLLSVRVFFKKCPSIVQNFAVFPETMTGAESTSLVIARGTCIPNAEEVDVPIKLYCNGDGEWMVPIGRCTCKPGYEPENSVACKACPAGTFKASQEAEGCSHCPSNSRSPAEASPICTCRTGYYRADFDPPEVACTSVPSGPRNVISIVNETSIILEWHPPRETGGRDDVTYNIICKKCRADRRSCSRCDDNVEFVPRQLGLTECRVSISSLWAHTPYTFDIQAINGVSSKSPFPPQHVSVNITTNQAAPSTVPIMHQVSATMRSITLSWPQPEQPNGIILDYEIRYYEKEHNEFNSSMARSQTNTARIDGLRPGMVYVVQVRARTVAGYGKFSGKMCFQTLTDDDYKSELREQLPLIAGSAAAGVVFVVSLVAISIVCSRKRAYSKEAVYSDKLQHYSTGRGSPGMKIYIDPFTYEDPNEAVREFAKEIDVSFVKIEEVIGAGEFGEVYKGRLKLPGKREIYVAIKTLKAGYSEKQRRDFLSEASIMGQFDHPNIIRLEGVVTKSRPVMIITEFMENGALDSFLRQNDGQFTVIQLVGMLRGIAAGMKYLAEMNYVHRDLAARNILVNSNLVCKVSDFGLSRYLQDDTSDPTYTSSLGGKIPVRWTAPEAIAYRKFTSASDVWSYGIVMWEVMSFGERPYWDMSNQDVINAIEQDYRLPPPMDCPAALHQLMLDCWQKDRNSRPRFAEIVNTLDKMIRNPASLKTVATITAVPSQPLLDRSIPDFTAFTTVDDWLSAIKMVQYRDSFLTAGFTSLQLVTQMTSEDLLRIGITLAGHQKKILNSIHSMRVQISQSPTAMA
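For SH2 binding enrichment of the phosphorylated peptide, bacterial display in this document: peptide library displayed on the E. coli surface as eCPX fusions, selected cells deep-sequenced, score is each peptide's frequency after selection divided by its frequency in the input.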
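For phosphorylation enrichment, bacterial display in this document: 11-residue human phosphosite peptides and single-mutation variants displayed on the E. coli surface, counted by deep sequencing, each peptide's frequency after selection divided by its frequency in the unselected input library; frequency after pTyr selection over input frequency; kinase dosed for 20-30% of maximal phosphorylation in three min.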

Chain of FGFR1 (P11362 whole entry, looked up): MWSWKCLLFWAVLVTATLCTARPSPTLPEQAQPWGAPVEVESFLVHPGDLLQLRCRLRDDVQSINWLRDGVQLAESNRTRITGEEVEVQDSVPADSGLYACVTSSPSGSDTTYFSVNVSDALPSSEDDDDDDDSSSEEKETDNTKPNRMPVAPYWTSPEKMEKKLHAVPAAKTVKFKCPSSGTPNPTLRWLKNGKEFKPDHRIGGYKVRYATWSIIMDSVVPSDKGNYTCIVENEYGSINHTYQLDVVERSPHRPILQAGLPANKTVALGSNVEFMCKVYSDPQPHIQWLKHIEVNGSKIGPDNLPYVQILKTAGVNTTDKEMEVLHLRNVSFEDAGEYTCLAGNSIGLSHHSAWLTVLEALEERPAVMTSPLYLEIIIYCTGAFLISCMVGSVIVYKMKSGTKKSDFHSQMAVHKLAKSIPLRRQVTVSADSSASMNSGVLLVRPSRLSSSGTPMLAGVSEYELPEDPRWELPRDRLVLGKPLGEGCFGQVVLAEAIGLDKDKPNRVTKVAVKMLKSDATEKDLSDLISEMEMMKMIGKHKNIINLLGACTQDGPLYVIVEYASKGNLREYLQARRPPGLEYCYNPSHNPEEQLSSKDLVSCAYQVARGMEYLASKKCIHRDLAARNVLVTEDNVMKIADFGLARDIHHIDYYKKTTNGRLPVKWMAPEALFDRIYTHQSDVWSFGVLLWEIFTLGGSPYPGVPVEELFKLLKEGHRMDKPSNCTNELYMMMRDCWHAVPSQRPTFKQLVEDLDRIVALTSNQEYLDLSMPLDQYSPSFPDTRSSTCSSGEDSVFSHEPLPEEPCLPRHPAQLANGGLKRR
Chain of Grb2 SH2 (P62993 whole entry, looked up): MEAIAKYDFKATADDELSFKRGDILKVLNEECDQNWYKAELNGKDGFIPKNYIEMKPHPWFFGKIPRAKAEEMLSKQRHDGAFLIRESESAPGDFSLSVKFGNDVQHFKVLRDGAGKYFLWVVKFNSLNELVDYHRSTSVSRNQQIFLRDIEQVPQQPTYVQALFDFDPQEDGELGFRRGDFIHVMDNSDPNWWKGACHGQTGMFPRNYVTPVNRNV

Sequence	SH2 binding enrichment (Grb2 SH2)	SH2 binding enrichment (c-Src SH2)	SH2 binding enrichment (SHP2-C SH2)	phosphorylation enrichment (FGFR1)	phosphorylation enrichment (c-Src)	phosphorylation enrichment (EPHB2)	phosphorylation enrichment (Fes)	phosphorylation enrichment (Hck)	phosphorylation enrichment (Jak2)	phosphorylation enrichment (Fer (mouse))	phosphorylation enrichment (MERTK)	phosphorylation enrichment (c-Abl (mouse))	phosphorylation enrichment (AncSZ)	phosphorylation enrichment (Fyn)	phosphorylation enrichment (FGFR3)	phosphorylation enrichment (EPHB1)
IKELTYQTEED [MYH7_Y1852]	0.879	0.52	0.832	0.54	0.467	0.612	1.33	0.604	1.1	0.635	0.441	0.753	1.27	0.579	0.773	0.591
SQQTYYPVSNM [ABCD1_Y181_R182P]	0.864	0.532	0.534	13.5	5.27	4.24	0.68	6.81	9.57	0.946	10.5	2.44	1.32	3.77	10.5	5.58
LDTSQYFRLFN [CPT2_Y217_M214T]	0.96	0.472	1.98	1.47	0.535	0.522	0.784	0.61	4.85	0.498	0.532	0.617	0.824	0.413	1.36	0.673
LDPIQYSKHPP [SQSTM1_Y433_T430P]	0.885	0.451	0.838	0.624	0.303	0.588	0.663	0.795	0.481	0.634	0.384	0.448	0.691	0.472	0.828	0.473
KIKGWYEKCEP [KRT26_Y119]	0.935	1.26	0.693	0.515	0.47	0.573	1.21	0.527	1.07	0.541	0.446	0.786	0.996	0.442	0.779	0.594
KRNSLYSFSDH [CCDC82_Y331_Q327R]	0.89	0.548	0.846	0.411	1.33	0.379	0.55	0.964	0.416	0.829	4.12	0.569	0.531	1.54	0.471	0.458
ALTRSYVREKV [CYP2C8_Y243_I244V]	0.804	0.495	0.551	0.364	0.316	0.462	0.532	0.437	0.353	0.398	0.459	0.617	0.571	0.387	0.522	0.42
LFIDSYEKDVA [PGM1_Y521_YF]	0.835	0.787	0.728	0.855	0.694	0.755	2.05	0.816	1.22	0.767	0.848	1.36	2.09	1.41	1.48	1.34
DLLMQYPKAQG [FAM83C_Y600]	0.882	0.485	0.763	0.341	0.352	0.301	0.543	0.364	0.496	0.452	0.356	0.491	0.812	0.385	0.467	0.498
FHKALYTVRSY [PDE6C_Y266]	0.814	0.456	0.87	0.465	0.582	0.524	0.919	0.801	0.704	0.471	0.414	0.775	0.814	0.515	0.576	0.534
IVFVICDEVVK [SLC25A1_Y297_Y297C]	1.12	0.734	1.03	0.484	0.393	0.555	1.25	0.501	1.01	0.498	0.333	0.55	1.15	0.442	0.833	0.652
WNDLDYVDSRR [GAA_Y407_M408V]	0.903	0.643	0.796	0.567	0.478	0.869	0.94	0.521	0.89	0.45	0.357	0.53	1.44	0.373	0.67	0.515
RHPFFFAPELL [ALB_Y174_Y174F_YF]	1.34	1.05	1.44	0.619	0.932	0.842	1.72	0.859	1.15	0.529	0.727	1.02	1.64	0.771	1.64	0.947
FTAVGYHKHFT [NOMO1_Y1137_I1141F]	0.865	1.04	1.5	0.449	0.552	0.366	0.935	0.426	0.782	0.449	0.424	0.491	0.614	0.431	0.589	0.252
EFENSYIFDIN [GAB1_Y83]	0.82	0.581	0.854	0.478	0.432	0.58	1.16	0.488	1.16	0.489	0.419	0.501	1.25	0.519	0.695	0.435
DEEFEYMNRRR [ERBB3_Y1199_YF]	0.842	0.521	0.799	0.591	0.564	0.66	1.18	0.497	1.01	0.474	0.597	0.688	1.3	0.643	0.612	0.481
EATKVYLDDPT [G6PD_Y322_G321V]	0.837	0.534	0.746	0.428	0.357	0.558	0.967	0.458	0.803	0.451	0.385	0.656	0.852	0.444	0.656	0.482

Sequence	SH2 binding enrichment (Grb2 SH2)	SH2 binding enrichment (c-Src SH2)	SH2 binding enrichment (SHP2-C SH2)	phosphorylation enrichment (FGFR1)	phosphorylation enrichment (c-Src)	phosphorylation enrichment (EPHB2)	phosphorylation enrichment (Fes)	phosphorylation enrichment (Hck)	phosphorylation enrichment (Jak2)	phosphorylation enrichment (Fer (mouse))	phosphorylation enrichment (MERTK)	phosphorylation enrichment (c-Abl (mouse))	phosphorylation enrichment (AncSZ)	phosphorylation enrichment (Fyn)	phosphorylation enrichment (FGFR3)	phosphorylation enrichment (EPHB1)
VHSGTYQVTVR [MYBPC3_Y1043]	0.725	0.567	0.64	0.404	0.561	0.489	0.586	0.738	0.48	0.435	0.409	0.442	0.593	0.448	0.391	0.521
PPPPAYDDMAQ [TNK2_Y635_V638M]	0.699	1.37	0.543	0.492	0.526	0.632	1.04	0.647	1.14	0.551	0.675	0.597	1.25	0.544	0.762	0.441
KGNMFYENSFA [EGFR_Y113_R108K_YF]	19.5	2.98	1	0.332	0.45	0.463	0.705	0.449	0.751	1.8	0.484	0.645	0.76	0.412	0.535	0.503
KNKKDYYDMYE [SLC26A3_Y526]	0.962	1.03	0.937	6.27	0.579	0.738	0.851	0.73	0.67	0.543	0.408	0.579	1.13	0.601	4.04	1.13
TESNNYIYTTL [FAM83B_Y637_K640T]	0.752	0.579	0.8	2.74	7.09	1.15	0.898	7.3	0.774	2.64	5.09	0.692	1.03	8.53	1.92	2.3
EVRTQYEEIAQ [KRT76_Y361_A359T]	0.882	20.6	0.967	0.49	0.376	0.504	1.04	0.576	0.919	0.588	0.395	0.899	1.08	0.455	0.726	0.679
MSSHHCDYKKY [ZNF445_Y428_Y428C]	0.962	0.553	0.665	0.965	0.452	0.385	0.661	0.372	0.475	0.388	0.432	0.517	0.633	0.472	0.437	0.366
MQMEEYRGRVE [BTNL2_Y91_W94R]	0.785	0.408	0.871	0.411	0.437	0.39	0.874	0.459	0.573	0.424	0.383	0.458	0.755	0.379	0.539	0.421
VRFMEYETQVK [TARDBP_Y155_T153M]	0.888	0.52	0.958	0.394	0.481	1.14	0.981	0.459	0.979	0.418	0.373	0.73	0.943	0.384	0.694	1.25
IVAREYFSEAD [CAMK2A_Y106_YF]	0.9	0.566	0.867	0.508	0.491	0.657	1.16	0.5	0.965	0.563	0.472	0.728	1.09	0.538	0.752	0.6
GITTGYLVLKE [DNMT3B_Y588_A585T]	0.907	0.746	2.06	0.456	0.371	0.532	0.797	0.438	0.616	0.542	0.334	0.389	0.668	0.404	0.572	0.39
NYSKMYCNPDA [KNL1_Y489_A486S]	3.18	2.63	0.819	0.483	0.349	0.45	0.914	0.469	0.819	0.435	0.414	0.566	0.794	0.396	0.521	0.536
RAFRHYLLKQK [SCN2A_Y1919_R1918H_YF]	0.939	0.468	0.439	0.955	0.907	1.67	1.59	1.28	0.912	1.49	0.97	1.48	1.16	1.16	1.68	0.793
SKKSTYRALLD [GANC_Y43_Q44R]	0.651	0.465	0.688	0.347	0.385	0.315	0.655	0.406	0.533	0.358	0.421	0.447	0.471	0.432	0.348	0.368
FPIDHYLGKEM [G6PD_Y202_R198P_YF]	0.908	0.497	0.716	0.492	0.489	0.485	0.903	0.68	0.685	0.469	0.391	0.524	0.789	0.396	0.619	0.404
GDFFCYLAEVA [YWHAG_Y133_R132C_YF]	0.618	0.491	0.701	0.557	0.484	0.655	1.52	0.608	1.39	0.865	0.546	1.12	1.33	0.702	0.922	0.863

Reference: the supplement of paper PMC10065799, “High-throughput profiling of sequence recognition by tyrosine kinases and SH2 domains using bacterial peptide display” (eLife, 2023)
